{"source": "paper PMC6420636", "about": "“The deubiquitylating enzyme USP15 regulates homologous recombination repair and cancer cell response to PARP inhibitors” (Nature Communications, 2019)", "biological_target": "T1, FLAG-BARD1-BRCT, deubiquitinated by His-USP15 in vitro (UniProt Q99728 568-777)", "T1 construct": "BARD1 C-terminal BRCT domain; also called deubiquitinated BARD1-BRCT domain", "T1 sequence (looked up)": "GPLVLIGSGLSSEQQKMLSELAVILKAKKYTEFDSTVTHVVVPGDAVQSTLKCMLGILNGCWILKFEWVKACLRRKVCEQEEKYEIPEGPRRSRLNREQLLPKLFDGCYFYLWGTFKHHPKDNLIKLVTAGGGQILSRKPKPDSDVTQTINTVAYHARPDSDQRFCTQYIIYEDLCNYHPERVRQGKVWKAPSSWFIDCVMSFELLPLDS", "assay": "pull-down; in vitro binding assay: BARD1-BRCT purified by tandem IP and left on FLAG beads, untreated or deubiquitinated by His-USP15, incubated with GST or GST-HP1γ", "conditions": "both partners purified", "data": [{"binder": "GST-HP1γ (natural protein, HP1γ; plasmid a gift from Naoko Tanese; source: E. coli BL21, purified (glutathione Sepharose 4B)) not shown", "values": [{"measurement": "binding result", "result": "binds"}]}]}
